Median survival data for one molecule are collected here from US20250197513A1, “OSMR-SPECIFIC MONOCLONAL ANTIBODIES AND METHODS OF THEIR USE” (THE BOARD OF REGENTS OF THE UNIVERSITY OF TEXAS SYSTEM, priority 2021, published 2025).

The subject of the experiment is HEYA8 ovarian cancer cells. As to the kind of experiment: In vivo efficacy and survival, intraperitoneal HEYA8-Luc+ ovarian cancer model. Also on record: species or system athymic nude mice. The conditions noted are these: survival monitored for 100 days; antibody 10 mg/kg twice a week for 5 weeks; OSM 250 ng/kg. Here is the method:
To test the in vivo efficacy of anti-OSMR antibodies and overall survival efficiency post-treatment, Heya8-Luc+ cells (3×10^4 cells/animal) were intraperitoneally injected into 4-6-week-old athymic female nude mice (Nu/Nu) (Envigo, Madison, WI, USA) with a 27-gauge needle. Mice were monitored for tumor growth by bio-luminescence imaging IVIS100 and after 7 days post injection, randomly divided into 7 mice per group (efficacy testing) and 10 mice per group (survival studies). Mice were treated intraperitoneally twice weekly with Control IgG.
All the antibody clones were given at a concentration 10 mg/kg b.w twice a week for 5 weeks. All mice were euthanized at the end of 5 weeks or when moribund. Tumors were harvested and weighed, total number of tumor nodules and metastasis to distant organs were counted and imaged using IVIS100. The tumors were excised and proceeded for IHC, Western blotting and qPCR. For survival studies, the treatments were stopped after 5 weeks, and survival progression was monitored for a total of 100 days.

B1: OSM: recombinant human oncostatin M, ligand of OSMR, given with control IgG to stimulate tumor growth (protein)
chain: AAIGSCSKEYRVLLGQLQKQTDLMQDTSRLLDPYIRIQGLDVPKLREHCRERPGAFPSEETLRGLGRRGFLQTLNATLGCVLHRLADLEQRLPKAQDLERSGLNIEDLEKLQMARPNILGLRNNIYCMAQLLDNSDTAEPTKAGRGASQPPTPTPASDAFQRKLEGCRFLHGYHRFMHSVGRVFSKWGESPNRSRR
The molecule B1 yielded a median survival of 29 days.
